Measured values as given in patent publication US20240261333A1, “NOVEL TARGETS FOR ENHANCING ANTI-TUMOR IMMUNITY” (THE BROAD INSTITUTE, INC., priority 2021, published 2024).

Assays:
[1] = biological target: ERLIN2 (human) (UniProt O94905); assay: co-IP/MS, IgG control IP of N-FLAG B3GNT2 cell lysate
[2] = biological target: DNAJA1 (human) (UniProt P31689); assay: as above
[3] = biological target: RPS9 (human) (UniProt P46781); assay: as above
[4] = biological target: CAPZB (human) (UniProt P47756); assay: as above
[5] = biological target: PIP (human) (UniProt P12273); assay: as above
[6] = biological target: RPL24 (human) (UniProt P83731); assay: as above
[7] = biological target: UQCRC2 (human) (UniProt P22695); assay: as above
[8] = biological target: TUBB (human) (UniProt P07437); assay: as above
TUBB (human), sequence (P07437 whole entry): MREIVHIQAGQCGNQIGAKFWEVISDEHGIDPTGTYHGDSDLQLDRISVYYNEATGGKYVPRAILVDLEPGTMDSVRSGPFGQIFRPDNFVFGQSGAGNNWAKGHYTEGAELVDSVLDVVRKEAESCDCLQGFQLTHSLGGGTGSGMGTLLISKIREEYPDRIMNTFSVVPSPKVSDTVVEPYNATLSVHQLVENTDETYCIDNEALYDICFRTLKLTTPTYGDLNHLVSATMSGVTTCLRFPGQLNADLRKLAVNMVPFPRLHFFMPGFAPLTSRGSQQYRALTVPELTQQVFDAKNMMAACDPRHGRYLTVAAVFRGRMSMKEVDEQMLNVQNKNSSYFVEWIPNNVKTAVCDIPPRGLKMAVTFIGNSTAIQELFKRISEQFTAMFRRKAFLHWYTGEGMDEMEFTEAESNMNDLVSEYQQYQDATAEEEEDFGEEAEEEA

[9] = biological target: RPLPO (human) (UniProt P05388); assay: as above
[10] = biological target: CAPZA1 (human) (UniProt P52907); assay: as above
[11] = biological target: RPS5 (human) (UniProt P46782); assay: as above
[12] = biological target: RPL14 (human) (UniProt P50914); assay: as above
[13] = biological target: RPS12 (human) (UniProt P25398); assay: as above
[14] = biological target: CANX (human) (UniProt P27824); assay: as above
[15] = biological target: RPS7 (human) (UniProt P62081); assay: as above
[16] = biological target: TBL2 (human) (UniProt Q9Y4P3); assay: control IP with IgG, lysate of cells with C-FLAG B3GNT2, mass spectrometry
[17] = biological target: IL13RA2 (human) (UniProt Q14627); assay: as above
IL13RA2 (human), sequence (Q14627 27-380 limits assumed): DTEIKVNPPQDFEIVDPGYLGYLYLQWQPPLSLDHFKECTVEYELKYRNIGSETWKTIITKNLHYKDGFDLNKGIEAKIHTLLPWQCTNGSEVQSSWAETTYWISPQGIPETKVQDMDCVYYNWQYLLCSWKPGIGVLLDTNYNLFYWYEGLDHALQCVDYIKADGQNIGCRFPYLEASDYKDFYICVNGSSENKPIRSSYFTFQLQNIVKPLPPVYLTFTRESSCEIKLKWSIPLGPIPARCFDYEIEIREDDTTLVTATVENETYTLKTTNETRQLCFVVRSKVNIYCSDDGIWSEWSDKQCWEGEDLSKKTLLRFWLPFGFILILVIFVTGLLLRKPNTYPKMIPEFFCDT

[18] = biological target: SYNPO (human) (UniProt Q8N3V7); assay: as above
[19] = biological target: RPS14 (human) (UniProt P62263); assay: as above
[20] = biological target: FLG (human) (UniProt P20930); assay: as above
[21] = biological target: RPL8 (human) (UniProt P62917); assay: as above
[22] = biological target: DDX1 (human) (UniProt Q92499); assay: as above
[23] = biological target: SYNCRIP (human) (UniProt O60506); assay: as above
SYNCRIP (human), sequence (O60506 other isoform, or with tags, fused parts or gaps limits assumed): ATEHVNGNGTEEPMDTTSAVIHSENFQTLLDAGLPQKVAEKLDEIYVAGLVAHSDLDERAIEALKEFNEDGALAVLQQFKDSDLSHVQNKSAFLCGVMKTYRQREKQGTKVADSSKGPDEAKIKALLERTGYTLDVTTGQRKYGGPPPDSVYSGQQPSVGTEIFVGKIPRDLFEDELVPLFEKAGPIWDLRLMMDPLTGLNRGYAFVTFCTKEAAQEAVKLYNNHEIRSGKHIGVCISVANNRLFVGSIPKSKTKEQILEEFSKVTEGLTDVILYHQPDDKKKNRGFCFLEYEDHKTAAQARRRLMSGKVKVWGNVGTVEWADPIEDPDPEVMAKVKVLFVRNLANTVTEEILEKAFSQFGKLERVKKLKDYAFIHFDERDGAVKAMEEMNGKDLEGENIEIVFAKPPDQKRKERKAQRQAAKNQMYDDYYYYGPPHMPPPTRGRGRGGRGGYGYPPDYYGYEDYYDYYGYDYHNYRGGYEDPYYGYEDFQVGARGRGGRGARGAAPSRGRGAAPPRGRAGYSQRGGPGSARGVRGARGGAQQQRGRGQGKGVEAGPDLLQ

[24] = biological target: KCTD5 (human) (UniProt Q9NXV2); assay: as above
[25] = biological target: RPL38 (human) (UniProt P63173); assay: as above
[26] = biological target: DHX9 (human) (UniProt Q08211); assay: as above
DHX9 (human), sequence (Q08211 whole entry): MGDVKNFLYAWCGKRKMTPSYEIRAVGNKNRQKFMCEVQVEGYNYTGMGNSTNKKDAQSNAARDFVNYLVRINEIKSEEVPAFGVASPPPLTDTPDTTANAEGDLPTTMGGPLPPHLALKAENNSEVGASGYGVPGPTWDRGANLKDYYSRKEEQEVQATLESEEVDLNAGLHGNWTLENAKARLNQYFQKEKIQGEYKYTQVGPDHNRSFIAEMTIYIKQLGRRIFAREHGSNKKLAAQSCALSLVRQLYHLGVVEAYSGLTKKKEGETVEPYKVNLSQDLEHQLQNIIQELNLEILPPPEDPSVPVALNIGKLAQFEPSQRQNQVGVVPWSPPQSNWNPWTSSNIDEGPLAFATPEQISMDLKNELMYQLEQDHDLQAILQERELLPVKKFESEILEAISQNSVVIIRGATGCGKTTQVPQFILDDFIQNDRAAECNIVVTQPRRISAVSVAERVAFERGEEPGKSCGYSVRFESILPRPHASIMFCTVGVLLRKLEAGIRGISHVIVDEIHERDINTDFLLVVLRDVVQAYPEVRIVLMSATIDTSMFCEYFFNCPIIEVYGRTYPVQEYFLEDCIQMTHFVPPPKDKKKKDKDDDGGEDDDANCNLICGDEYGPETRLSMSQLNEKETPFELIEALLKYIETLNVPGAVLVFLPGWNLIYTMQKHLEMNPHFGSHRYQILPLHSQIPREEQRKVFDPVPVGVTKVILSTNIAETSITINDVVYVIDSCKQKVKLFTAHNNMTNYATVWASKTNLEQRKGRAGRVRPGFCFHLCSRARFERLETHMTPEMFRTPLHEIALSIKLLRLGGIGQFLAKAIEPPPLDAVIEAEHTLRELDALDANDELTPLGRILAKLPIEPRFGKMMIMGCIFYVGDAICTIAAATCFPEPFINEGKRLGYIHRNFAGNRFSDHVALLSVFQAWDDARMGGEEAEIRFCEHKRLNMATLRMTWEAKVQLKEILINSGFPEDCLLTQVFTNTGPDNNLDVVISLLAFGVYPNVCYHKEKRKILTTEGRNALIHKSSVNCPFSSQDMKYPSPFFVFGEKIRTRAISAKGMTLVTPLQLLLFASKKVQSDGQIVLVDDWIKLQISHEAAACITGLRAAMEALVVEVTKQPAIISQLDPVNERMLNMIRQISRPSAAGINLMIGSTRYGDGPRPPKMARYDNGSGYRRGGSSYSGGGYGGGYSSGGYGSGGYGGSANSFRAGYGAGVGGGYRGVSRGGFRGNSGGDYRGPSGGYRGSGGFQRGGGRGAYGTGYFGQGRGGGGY

[27] = biological target: RPL23 (human) (UniProt P62829); assay: as above
[28] = biological target: RACK1 (human) (UniProt P63244); assay: as above
[29] = biological target: PKM (human) (UniProt P14618); assay: as above
PKM (human), sequence (P14618 2-531 limits assumed): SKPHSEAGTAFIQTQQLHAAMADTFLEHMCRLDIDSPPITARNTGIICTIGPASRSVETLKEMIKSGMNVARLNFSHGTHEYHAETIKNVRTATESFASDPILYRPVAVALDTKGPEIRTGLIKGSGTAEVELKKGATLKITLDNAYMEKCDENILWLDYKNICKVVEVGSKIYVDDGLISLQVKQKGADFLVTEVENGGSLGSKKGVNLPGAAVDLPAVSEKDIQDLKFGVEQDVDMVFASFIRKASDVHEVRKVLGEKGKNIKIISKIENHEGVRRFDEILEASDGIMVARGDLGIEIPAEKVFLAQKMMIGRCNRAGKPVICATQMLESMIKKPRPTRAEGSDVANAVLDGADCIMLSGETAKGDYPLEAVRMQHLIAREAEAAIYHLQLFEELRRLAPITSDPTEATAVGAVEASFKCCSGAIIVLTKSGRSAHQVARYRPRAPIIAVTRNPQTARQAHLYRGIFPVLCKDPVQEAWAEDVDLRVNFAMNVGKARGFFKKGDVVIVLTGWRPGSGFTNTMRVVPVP

[30] = biological target: S100A7 (human) (UniProt P31151); assay: as above
S100A7 (human), sequence (P31151 2-101 limits assumed): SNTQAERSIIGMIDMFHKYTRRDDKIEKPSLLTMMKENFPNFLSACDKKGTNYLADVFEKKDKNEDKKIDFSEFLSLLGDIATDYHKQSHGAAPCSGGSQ

[31] = biological target: GBF1 (human) (UniProt Q92538); assay: as above
[32] = biological target: TELO2 (human) (UniProt Q9Y4R8); assay: as above
[33] = biological target: HNRNPM (human) (UniProt P52272); assay: as above
HNRNPM (human), sequence (P52272 2-730 limits assumed): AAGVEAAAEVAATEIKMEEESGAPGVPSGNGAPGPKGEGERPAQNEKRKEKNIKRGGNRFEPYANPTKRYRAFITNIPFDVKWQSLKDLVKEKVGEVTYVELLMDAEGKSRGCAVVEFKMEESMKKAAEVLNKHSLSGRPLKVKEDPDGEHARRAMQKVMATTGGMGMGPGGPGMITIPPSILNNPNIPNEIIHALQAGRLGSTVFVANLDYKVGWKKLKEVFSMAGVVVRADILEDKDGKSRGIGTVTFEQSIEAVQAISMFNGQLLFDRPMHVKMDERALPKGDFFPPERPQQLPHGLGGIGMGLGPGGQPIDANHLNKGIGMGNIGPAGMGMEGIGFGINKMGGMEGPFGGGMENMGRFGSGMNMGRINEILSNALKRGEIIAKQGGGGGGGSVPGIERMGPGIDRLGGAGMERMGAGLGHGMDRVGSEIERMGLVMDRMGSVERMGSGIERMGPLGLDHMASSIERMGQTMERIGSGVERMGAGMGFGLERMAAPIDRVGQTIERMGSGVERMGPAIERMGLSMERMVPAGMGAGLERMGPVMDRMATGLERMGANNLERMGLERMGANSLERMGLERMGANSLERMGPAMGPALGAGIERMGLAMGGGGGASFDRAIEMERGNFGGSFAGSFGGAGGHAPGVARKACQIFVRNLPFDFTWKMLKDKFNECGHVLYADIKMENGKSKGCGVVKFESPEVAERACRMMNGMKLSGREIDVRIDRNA

[34] = biological target: MAP4 (human) (UniProt P27816); assay: as above
[35] = biological target: RPL28 (human) (UniProt P46779); assay: as above
[36] = biological target: RPL7 (human) (UniProt P18124); assay: as above
[37] = biological target: RHOT2 (human) (UniProt Q8IXI1); assay: as above
RHOT2 (human), sequence (Q8IXI1 whole entry): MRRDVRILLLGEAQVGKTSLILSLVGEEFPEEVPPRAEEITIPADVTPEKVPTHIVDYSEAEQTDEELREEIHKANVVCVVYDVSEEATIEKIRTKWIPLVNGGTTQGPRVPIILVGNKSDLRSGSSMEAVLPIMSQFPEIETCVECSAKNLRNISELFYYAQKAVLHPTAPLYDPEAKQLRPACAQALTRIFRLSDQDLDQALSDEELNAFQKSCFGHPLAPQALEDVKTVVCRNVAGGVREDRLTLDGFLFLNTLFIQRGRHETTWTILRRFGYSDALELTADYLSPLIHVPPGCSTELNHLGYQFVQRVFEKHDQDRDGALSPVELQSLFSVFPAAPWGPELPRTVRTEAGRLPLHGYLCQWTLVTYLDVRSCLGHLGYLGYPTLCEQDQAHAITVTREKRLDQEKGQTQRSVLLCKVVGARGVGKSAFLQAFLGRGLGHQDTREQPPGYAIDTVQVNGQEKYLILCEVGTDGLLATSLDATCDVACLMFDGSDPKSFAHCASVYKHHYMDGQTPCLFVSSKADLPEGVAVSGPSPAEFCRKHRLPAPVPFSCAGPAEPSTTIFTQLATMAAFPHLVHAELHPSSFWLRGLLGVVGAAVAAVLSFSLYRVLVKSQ

[38] = biological target: SYNM (human) (UniProt O15061); assay: as above
[39] = biological target: EIF3A (human) (UniProt Q14152); assay: as above

ERLIN2 (human), sequence (O94905 whole entry): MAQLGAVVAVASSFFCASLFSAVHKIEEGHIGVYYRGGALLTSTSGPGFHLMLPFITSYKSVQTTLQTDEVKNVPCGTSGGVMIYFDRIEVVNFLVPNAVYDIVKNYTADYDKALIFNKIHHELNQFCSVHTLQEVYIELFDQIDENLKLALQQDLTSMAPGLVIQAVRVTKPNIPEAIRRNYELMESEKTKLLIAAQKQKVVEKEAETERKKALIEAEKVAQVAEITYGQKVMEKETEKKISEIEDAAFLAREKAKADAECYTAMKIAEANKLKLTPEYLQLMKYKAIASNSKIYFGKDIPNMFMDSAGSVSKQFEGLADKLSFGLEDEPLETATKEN

“IgG control (Millipore Sigma 12-371) (antibody)” gave a co-IP mass spectrometry count [1] of 0, a co-IP mass spectrometry count [2] of 0 and a co-IP mass spectrometry count [3] of 3. It also gave a co-IP mass spectrometry count [4] of 2, a co-IP mass spectrometry count [5] of 0 and a co-IP mass spectrometry count [6] of 4. The co-IP mass spectrometry count [7] was 0, the co-IP mass spectrometry count [8] was 10 and the co-IP mass spectrometry count [9] was 0. It also gave a co-IP mass spectrometry count [10] of 0, a co-IP mass spectrometry count [11] of 3 and a co-IP mass spectrometry count [12] of 7. It also gave a co-IP mass spectrometry count [13] of 0, a co-IP mass spectrometry count [14] of 0 and a co-IP mass spectrometry count [15] of 2. For the same substance, the co-IP mass spectrometry count [16] was 0, the co-IP mass spectrometry count [17] was 0 and the co-IP mass spectrometry count [18] was 4. For the same substance, the co-IP mass spectrometry count [19] was 10, the co-IP mass spectrometry count [20] was 15 and the co-IP mass spectrometry count [21] was 3. The co-IP mass spectrometry count [22] was 5, the co-IP mass spectrometry count [23] was 4 and the co-IP mass spectrometry count [24] was 0. For the same substance, the co-IP mass spectrometry count [25] was 6, the co-IP mass spectrometry count [26] was 0 and the co-IP mass spectrometry count [27] was 4. For the same substance, the co-IP mass spectrometry count [28] was 0, the co-IP mass spectrometry count [29] was 2 and the co-IP mass spectrometry count [30] was 3. For the same substance, the co-IP mass spectrometry count [31] was 0, the co-IP mass spectrometry count [32] was 0 and the co-IP mass spectrometry count [33] was 5. It also gave a co-IP mass spectrometry count [34] of 0, a co-IP mass spectrometry count [35] of 3 and a co-IP mass spectrometry count [36] of 3. For the same substance, the co-IP mass spectrometry count [37] was 0, the co-IP mass spectrometry count [38] was 2 and the co-IP mass spectrometry count [39] was 0.
